# Assay results: US20240368285A1 (HEFEI TG IMMUNOPHARMA, published 2024)
# Read-outs that look alike come from different tables or passages of the source.
# T1: MICA protein (SPR analyte) (human, UniProt Q29983 24-308, limits assumed)
# T1 construct: also called major histocompatibility complex class I chain related polypeptide A
# T1 sequence: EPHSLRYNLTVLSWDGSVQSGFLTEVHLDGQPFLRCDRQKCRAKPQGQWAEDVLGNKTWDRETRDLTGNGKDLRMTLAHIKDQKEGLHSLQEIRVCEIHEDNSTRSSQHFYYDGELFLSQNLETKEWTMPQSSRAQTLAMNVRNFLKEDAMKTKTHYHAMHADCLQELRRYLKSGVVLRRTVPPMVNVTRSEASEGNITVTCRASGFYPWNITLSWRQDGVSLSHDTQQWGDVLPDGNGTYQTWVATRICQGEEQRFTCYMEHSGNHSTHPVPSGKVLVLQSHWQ
# T2: MICA on human tumor cells (A-375, A549, HCT-15, MDA-MB-231) (human, UniProt Q29983 24-383)
# T2 construct: whole, on cells
# T2 sequence (looked up): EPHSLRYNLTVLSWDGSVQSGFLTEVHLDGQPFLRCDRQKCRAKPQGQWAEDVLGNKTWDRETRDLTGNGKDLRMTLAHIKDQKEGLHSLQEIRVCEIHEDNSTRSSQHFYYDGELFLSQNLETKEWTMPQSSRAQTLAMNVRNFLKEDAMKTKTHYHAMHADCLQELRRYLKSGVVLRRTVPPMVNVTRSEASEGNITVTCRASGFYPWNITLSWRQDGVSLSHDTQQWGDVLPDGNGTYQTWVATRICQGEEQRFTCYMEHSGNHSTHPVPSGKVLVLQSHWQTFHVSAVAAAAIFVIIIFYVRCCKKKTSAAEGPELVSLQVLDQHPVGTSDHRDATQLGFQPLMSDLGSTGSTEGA
# What was measured:
# [1] = target: T1, MICA protein (SPR analyte); test: SPR, Biacore 8K, antibody captured on protein A chip, MICA as analyte
# Method: In a Biacore 8K (Cytiva) system, the antibody was diluted to a concentration of 10 µg/mL with running buffer (HBS-EP), and the antibody was conjugated onto a protein A (Cytiva, 29127556) chip at a flow rate of […].
# Kinetic and affinity data of binding of the maternal antibody h5A1 and the affinity maturation antibody h5A1002 and MICA were detected.
# [2] = target: T2, MICA on human tumor cells (A-375, A549, …); test: flow cytometry on A-375 cells, Alexa-647 goat anti-human secondary, average fluorescence intensity
# Method: (1) Tumor cells were diluted to a density of 2×10⁶/mL with PBS and then added into a 1.5 ml EP tube in a volume of 100 l/tube. 10 l/tube of goat serum was added into the EP tube; and blocking was conducted at 4° C. for 30 min. Antibody h5A1 (having a heavy chain sequence as set forth in SEQ ID NO: 11 and a light chain sequence as set forth in SEQ ID NO: 12), antibody h5A1002 (having a heavy chain sequence as set forth in SEQ ID NO: 13 and a light chain sequence as set forth in SEQ ID NO: 14), and control IgG1 (purchased from Biointron) were gradient-diluted (at a highest working concentration of 50 μg/ml, 10 gradients, diluted by 3 times for each gradient) and added. The tube was incubated at 4° C. for 30 min. 1 mL of PBS was added into the EP tube, and centrifugation was conducted 4° C. at a rate of 3,500 rpm for 5 min. The supernatant was removed. The EP tube was washed once with the PBS. The supernatant was removed after centrifugation. The cells were resuspended with PBS in a volume of 100 l/tube. An Alexa-647 labeled goat anti-human secondary antibody (purchased from Jackson lab) was added into the tube in a volume of 1 l/tube; and the plate was incubated in the dark at 4° C. for 30 min. The tube was washed twice with PBS, and the supernatant was removed after centrifugation. […]
# MICA002α3-Fc [3] = target: T3, MICA002α3-Fc (human); test: ELISA on coated MICA*002 α3-Fc (1 µg/ml), HRP anti-human Fab secondary, OD450
# T3 construct: Produced in the Applicant's laboratory; also called MICA*002-Fc; domain α3 of MICA-002 Fc fusion protein
# Method: After the antibodies were added, signal intensity was used for judging the binding characteristics of the antibodies and MICA and MICB.
# The fusion proteins (produced in the Applicant's laboratory; an amino acid sequence of MICA002α3-Fc is as set forth in SEQ ID NO: 22; an amino acid sequence of MICA005α3-Fc is as set forth in SEQ ID NO: 24; an amino acid sequence of MICA008α3-Fc is as set forth in SEQ ID NO: 25; an amino acid sequence of MICA004α3-Fc is as set forth in SEQ ID NO: 23; an amino acid sequence of MICB001α3-Fc is as set forth in SEQ ID NO: 26; and an amino acid sequence of MICB005α3-Fc is as set forth in SEQ ID NO: 27) were diluted to a concentration of 1 μg/ml with PBS and then added into a 96-well plate in a volume of 100 μl/well. The plate was placed at 4° C. overnight. The PBS in the 96-well plate was removed by sucking. After the plate was washed with PBST (that is, PBS having a pH value of 7.2 included 0.1 volume % of Tween 20) for 6 times, PBS containing 10% of BSA was added in a volume of 200 μl/well. The plate was incubated at 37° C. for 2 hours for blocking. The blocking solution was removed. […]
# MICA002α3-Fc [4] = target: T3, MICA002α3-Fc; test: as above; remark: listed apart in the source
# T3 sequence (chain, as listed by the source limits assumed): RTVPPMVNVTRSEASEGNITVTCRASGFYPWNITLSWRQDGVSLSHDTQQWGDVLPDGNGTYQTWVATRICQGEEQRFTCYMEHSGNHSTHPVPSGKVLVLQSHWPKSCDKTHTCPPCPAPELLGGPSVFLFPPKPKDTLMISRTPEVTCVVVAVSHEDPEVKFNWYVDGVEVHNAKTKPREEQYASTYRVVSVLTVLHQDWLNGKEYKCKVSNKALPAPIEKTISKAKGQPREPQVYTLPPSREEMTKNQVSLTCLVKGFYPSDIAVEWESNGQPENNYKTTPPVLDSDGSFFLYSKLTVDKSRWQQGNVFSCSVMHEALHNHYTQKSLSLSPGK
binder,measurement,setting,value
"affinity maturation antibody h5A1002 (antibody, V domains shown, Human IgG1, kappa; also called h5A1002-hIgG1) VH: QVQLQESGPGLVKPSETLSLTCTVSGFSLTTYGGHWIRQPPGKGLEWIGMIWTDGWTDYNAAFISRVTISVDTSKNQFSLKLSSVTAADTAVYYCARKGHGYYYAMDYWGQGTLVTVSS VL: EIVLTQSPGTLSLSPGERATLSCTASSSVSSSYLHWYQQKPGQAPRLLIYSTSNLISGIPDRFSGSGSGTDFTLTISRLEPEDFAVYYCHQYHRSPFTFGQGTKLEIKR",Kd,[1],5.4 nM
same,koff,[1],0.000129 s⁻¹
same,kon,[1],23800 M⁻¹ s⁻¹
same,EC50 (read off the curve),[2],~2 µg/mL
same,EC50 (read off the curve),MICA002α3-Fc [3],~0.06 µg/mL
same,EC50 (read off the curve),MICA002α3-Fc [4],~0.04 µg/mL
